According to article PMC2965767, “Identification and Genome-Wide Prediction of DNA Binding Specificities for the ApiAP2 Family of Regulators from the Malaria Parasite”:

Molecular target: T1, PF11_0404 D1 (PF3D7_1139300, AP2 domain transcription factor, putative) (Plasmodium falciparum) (UniProt Q8IHX2)
T1 sequence: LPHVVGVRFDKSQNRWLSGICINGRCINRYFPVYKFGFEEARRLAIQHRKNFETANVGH
Experiment: not given
Conditions: PBM; highest protein concentration obtained; buffer not given; scale: PBM E-score of the seed 8-mer

| Molecule | binding signal |
| --- | --- |
| TAGAACAA (double strand) [PF11_0404_D1 primary motif] | 0.485 |
| TAGATCGA (double strand) [PF11_0404_D1 Secondary motif 1] | > 0.45 |

Molecular target: T2, PFF0200c D1 (PF3D7_0604100, AP2 domain transcription factor) (Plasmodium falciparum) (UniProt C6KSN9)
T2 sequence: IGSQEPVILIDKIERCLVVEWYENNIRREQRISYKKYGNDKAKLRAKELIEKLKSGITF
Experiment: not given
Conditions: PBM; highest protein concentration obtained; buffer not given; scale: PBM E-score of the seed 8-mer

| Molecule | binding signal |
| --- | --- |
| CMTGCACCMC / GKGGTGCAKG [PFF0200c_D1 Secondary motif 1] | > 0.45 |
| MCGCACCC / GGGTGCGK [PFF0200c_D1 Secondary motif 2] | > 0.45 |
| WGTGCACTRNA / TNYAGTGCACW [PFF0200c_D1 Secondary motif 3] | > 0.45 |

Molecular target: T3, PF13_0097 D1 (PF3D7_1317200, AP2 domain transcription factor AP2-FG, putative) (Plasmodium falciparum) (UniProt Q8IEE4)
T3 sequence: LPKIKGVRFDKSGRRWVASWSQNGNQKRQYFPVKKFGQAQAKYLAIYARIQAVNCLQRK
Experiment: not given
Conditions: PBM; highest protein concentration obtained; buffer not given; scale: PBM E-score of the seed 8-mer

| Molecule | binding signal |
| --- | --- |
| AGCTCAGA (double strand) [PF13_0097 primary motif] | 0.489 |
| TCACYCAR / YTGRGTGA [PF13_0097 Secondary motif 3] | > 0.45 |
| TGATCM / KGATCA [PF13_0097 Secondary motif 2] | > 0.45 |
| TGCTCAA (double strand) [PF13_0097 Secondary motif 1] | > 0.45 |

Molecular target: T4, PF10_0075 D1ext (PF3D7_1007700, AP2 domain transcription factor AP2-I) (Plasmodium falciparum) (UniProt Q8IJW6)
T4 sequence: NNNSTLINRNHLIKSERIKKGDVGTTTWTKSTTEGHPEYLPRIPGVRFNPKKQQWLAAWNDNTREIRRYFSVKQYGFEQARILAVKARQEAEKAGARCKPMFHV
Experiment: not given
Conditions: PBM; highest protein concentration obtained; buffer not given; scale: PBM E-score of the seed 8-mer

| Molecule | binding signal |
| --- | --- |
| GGGTCGACCC (double strand) [PF10_0075_D1 primary motif] | 0.495 |
| GGTTCCGA (double strand) [PF10_0075_D1 Secondary motif 5] | > 0.45 |
| GTCGCGAC (double strand) [PF10_0075_D1 Secondary motif 3] | > 0.45 |
| RGGTCGTTA / TAACGACCY [PF10_0075_D1 Secondary motif 2] | > 0.45 |
| TCGGKGCA / TGCMCCGA [PF10_0075_D1 Secondary motif 1] | > 0.45 |

Molecular target: T5, PF14_0633 D1 (PF3D7_1466400, AP2 domain transcription factor AP2-EXP) (Plasmodium falciparum) (UniProt Q8IKH2)
T5 sequence: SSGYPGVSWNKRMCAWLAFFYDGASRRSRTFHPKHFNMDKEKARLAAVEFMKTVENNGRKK
Experiment: not given
Conditions: PBM; highest protein concentration obtained; buffer not given; scale: PBM E-score of the seed 8-mer

| Molecule | binding signal |
| --- | --- |
| ARCATGCA / TGCATGYT [PF14_0633 Secondary motif 1] | > 0.45 |
| GCATGC (double strand) [PF14_0633 primary motif] | 0.5 |

Molecular target: T6, PFD0985w D2ext (ApiAP2) (Plasmodium falciparum) (UniProt Q8I1N6)
T6 sequence: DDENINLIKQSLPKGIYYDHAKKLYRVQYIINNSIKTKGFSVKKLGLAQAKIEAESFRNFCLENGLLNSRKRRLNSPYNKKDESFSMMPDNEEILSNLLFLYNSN
Experiment: not given
Conditions: PBM; highest protein concentration obtained; buffer not given; scale: PBM E-score of the seed 8-mer

| Molecule | binding signal |
| --- | --- |
| CCACACAC (double strand) [PFD0985w_D2 Secondary motif 3] | > 0.45 |
| GTGTTACAC (double strand) [PFD0985w_D2 primary motif] | 0.496 |
| GTGYNYACAC / GTGTRNRCAC [PFD0985w_D2 Secondary motif 2] | > 0.45 |
| WATTWCAC (double strand) [PFD0985w_D2 Secondary motif 1] | > 0.45 |

Molecular target: T7, PFF0670w D2ext (PF3D7_0613800, AP2 domain transcription factor, putative) (Plasmodium falciparum) (UniProt C6KSY0)
T7 sequence: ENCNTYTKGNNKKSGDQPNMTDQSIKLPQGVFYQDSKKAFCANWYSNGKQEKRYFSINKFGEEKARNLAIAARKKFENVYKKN
Experiment: not given
Conditions: PBM; highest protein concentration obtained; buffer not given; scale: PBM E-score of the seed 8-mer

| Molecule | binding signal |
| --- | --- |
| AAGATCTT (double strand) [PFF0670w_D2 Secondary motif 2] | > 0.45 |
| ACCTAGGT (double strand) [PFF0670w_D2 Secondary motif 1] | > 0.45 |
| CTCTAGAG (double strand) [PFF0670w_D2 primary motif] | 0.495 |

Molecular target: T8, PF14_0533 D1 (PF3D7_1456000, AP2 domain transcription factor, putative) (Plasmodium falciparum) (UniProt Q8IKR9)
T8 sequence: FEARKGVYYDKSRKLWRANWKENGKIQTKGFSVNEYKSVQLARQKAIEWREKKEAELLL
Experiment: not given
Conditions: PBM; highest protein concentration obtained; buffer not given; scale: PBM E-score of the seed 8-mer

| Molecule | binding signal |
| --- | --- |
| CACACACAC (double strand) [PF14_0533 primary motif] | 0.5 |
| GTGTGCA (double strand) [PF14_0533 Secondary motif 1] | > 0.45 |

Molecular target: T9, PFL1900w DLD (PF3D7_1239200, AP2 domain transcription factor, putative) (Plasmodium falciparum) (UniProt Q8I531)
T9 sequence: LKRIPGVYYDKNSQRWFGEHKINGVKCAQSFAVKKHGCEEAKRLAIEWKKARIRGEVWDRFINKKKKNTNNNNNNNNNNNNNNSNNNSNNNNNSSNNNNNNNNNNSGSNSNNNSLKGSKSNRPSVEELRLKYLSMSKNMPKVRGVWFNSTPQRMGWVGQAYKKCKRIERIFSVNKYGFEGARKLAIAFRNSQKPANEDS
Experiment: not given
Conditions: PBM; highest protein concentration obtained; buffer not given; scale: PBM E-score of the seed 8-mer

| Molecule | binding signal |
| --- | --- |
| ACCGCGGT (double strand) [PFL1900w_DLD Secondary motif 2] | > 0.45 |
| ACRACATC / GATGTYGT [PFL1900w_DLD Secondary motif 1] | > 0.45 |
| TCTACAA (double strand) [PFL1900w_DLD primary motif] | 0.468 |

Molecular target: T10, PFL1085w D1ext (PF3D7_1222600, AP2 domain transcription factor AP2-G) (Plasmodium falciparum) (UniProt Q8I5I9)
T10 sequence: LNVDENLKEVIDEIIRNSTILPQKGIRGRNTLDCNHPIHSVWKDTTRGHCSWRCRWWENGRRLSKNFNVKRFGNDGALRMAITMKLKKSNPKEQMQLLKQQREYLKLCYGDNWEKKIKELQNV
Experiment: not given
Conditions: PBM; highest protein concentration obtained; buffer not given; scale: PBM E-score of the seed 8-mer

| Molecule | binding signal |
| --- | --- |
| GTACTACT (double strand) [PFL1085w Secondary motif 1] | > 0.45 |
| GTGGTC (double strand) [PFL1085w Secondary motif 2] | > 0.45 |
| GTGTAC (double strand) [PFL1085w primary motif] | 0.49 |

Molecular target: T11, PF13_0267 D1 (PF3D7_1350900, AP2 domain transcription factor AP2-O4, putative) (Plasmodium falciparum) (UniProt A0A5K1K8Z4)
T11 sequence: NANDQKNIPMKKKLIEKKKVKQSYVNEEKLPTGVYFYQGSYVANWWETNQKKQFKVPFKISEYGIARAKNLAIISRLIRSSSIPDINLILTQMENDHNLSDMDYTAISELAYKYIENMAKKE
Experiment: not given
Conditions: PBM; highest protein concentration obtained; buffer not given; scale: PBM E-score of the seed 8-mer

| Molecule | binding signal |
| --- | --- |
| ACCTAA (double strand) [PF13_0267 Secondary motif 2] | > 0.45 |
| ATTCTAGAA (double strand) [PF13_0267 primary motif] | 0.479 |
| CTANTAG (double strand) [PF13_0267 Secondary motif 1] | > 0.45 |

Molecular target: T12, PF10_0075 D3ext (PF3D7_1007700, AP2 domain transcription factor AP2-I) (Plasmodium falciparum) (UniProt Q8IJW6)
T12 sequence: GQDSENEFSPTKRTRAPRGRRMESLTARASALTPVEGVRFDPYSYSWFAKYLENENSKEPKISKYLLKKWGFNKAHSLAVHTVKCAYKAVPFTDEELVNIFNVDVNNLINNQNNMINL
Experiment: not given
Conditions: PBM; highest protein concentration obtained; buffer not given; scale: PBM E-score of the seed 8-mer

| Molecule | binding signal |
| --- | --- |
| ATATGCAC (double strand) [PF10_0075_D3 Secondary motif 3] | > 0.45 |
| GTGCAA (double strand) [PF10_0075_D3 Secondary motif 4] | > 0.45 |
| GTGCACTA (double strand) [PF10_0075_D3 primary motif] | 0.496 |
| GTGCGCAC (double strand) [PF10_0075_D3 Secondary motif 1] | > 0.45 |
| GTGCGKTA / TAMCGCAC [PF10_0075_D3 Secondary motif 2] | > 0.45 |

Molecular target: T13, PFL1075w D1 (PF3D7_1222400, AP2 domain transcription factor) (Plasmodium falciparum) (UniProt Q8I5J1)
T13 sequence: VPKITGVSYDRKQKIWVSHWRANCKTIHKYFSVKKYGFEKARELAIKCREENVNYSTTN
Experiment: not given
Conditions: PBM; highest protein concentration obtained; buffer not given; scale: PBM E-score of the seed 8-mer

| Molecule | binding signal |
| --- | --- |
| CTGTATAA (double strand) [PFL1075w Secondary motif 2] | > 0.45 |
| TATATAGC (double strand) [PFL1075w Secondary motif 1] | > 0.45 |
| TATATATA (double strand) [PFL1075w primary motif] | 0.499 |

Molecular target: T14, PFD0985w D2ext (ApiAP2) (Plasmodium falciparum, UniProt Q8I1N6 3258-3362)
T14 sequence: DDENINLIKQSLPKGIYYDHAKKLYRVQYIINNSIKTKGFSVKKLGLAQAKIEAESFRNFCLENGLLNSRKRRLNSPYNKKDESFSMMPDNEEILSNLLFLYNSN
Experiment: EMSA; 5 mM MgCl2 with 10 mM EDTA; LightShift buffer, 2.5% glycerol, 50 mM KCl, 0.05% NP-40, 50 ng/uL poly(dI-dC); room temperature, 20 min
Conditions: tags: N-terminal GST (pGEX-4T1), kept; label: 5' biotin

| Molecule | binding result |
| --- | --- |
| PFD0985w_D2-1 (motif rank) (dsDNA) DNA 1: AATATTATAATAGTCGTAGCCATCAATGTGTAACACATGGTAATATAGATTTTCGTTTATATT DNA 2: AATATAAACGAAAATCTATATTACCATGTGTTACACATTGATGGCTACGACTATTATAATATT | binds |
| PFD0985w_D2-2 (motif rank) (dsDNA) DNA 1: AATATTATAATAGTCGTAGCCATCAATCCACACACCATGGTAATATAGATTTTCGTTTATATT DNA 2: AATATAAACGAAAATCTATATTACCATGGTGTGTGGATTGATGGCTACGACTATTATAATATT | binds |
| No motif (dsDNA) DNA 1: AATATTATAATAGTCGTAGCCATCAATAAAAAAAAATGGTAATATAGATTTTCGTTTATATT DNA 2: AATATAAACGAAAATCTATATTACCATTTTTTTTTATTGATGGCTACGACTATTATAATATT | no binding |

Molecular target: PF10_0075 D3ext (PF3D7_1007700, AP2 domain transcription factor AP2-I) (Plasmodium falciparum, UniProt Q8IJW6 910-1027)
Experiment: as above
Conditions: tags: N-terminal GST (pGEX-4T1), kept; label: 5' biotin

| Molecule | binding result |
| --- | --- |
| rhopH3 (dsDNA) DNA 1: ATTAATTTAATATGTACGCAAGGTGCACACTGGTGCATTAAAAAAAAAATATATATTAAT DNA 2: ATTAATATATATTTTTTTTTTAATGCACCAGTGTGCACCTTGCGTACATATTAAATTAAT | binds |
| msp1 (dsDNA) DNA 1: AAATTGTGTAAATTCATATTCGATAAAGTGCATTAATTTTATTTATCAATTGTAAACATA DNA 2: TATGTTTACAATTGATAAATAAAATTAATGCACTTTATCGAATATGAATTTACACAATTT | binds |
| msp10 (dsDNA) DNA 1: TCAACAATTATTATATAATTAATTAGAAGTGCATTAGGTAACAACTGTCGAATAAATATAT DNA 2: ATATATTTATTCGACAGTTGTTACCTAATGCACTTCTAATTAATTATATAATAATTGTTGA | binds |
